Data: patent publication US20230002480A1

Legend:
Assay in all cases: cell-based or functional assay
[1] = target: HIV-1 Env of pseudovirus 0260.v5.c36 (HIV-1)
[2] = target: HIV-1 Env of pseudovirus Q461.e2 (HIV-1)
[3] = target: HIV-1 Env of pseudovirus HIV-001428-2.42 (HIV-1)
[4] = target: HIV-1 Env of pseudovirus T251-18 (HIV-1)
[5] = target: HIV-1 Env of pseudovirus Ce0682_E4 (HIV-1)
[6] = target: HIV-1 Env of pseudovirus ZM109F.PB4 (HIV-1)
[7] = target: HIV-1 Env of pseudovirus BJOX028000.10.3 (HIV-1)
[8] = target: HIV-1 Env of pseudovirus CAAN5342.A2 (HIV-1)
[9] = target: HIV-1 Env of pseudovirus BJOX015000.11.5 (HIV-1)
[10] = target: HIV-1 Env of pseudovirus ZM53M.PB12 (HIV-1)
[11] = target: HIV-1 Env of pseudovirus Ce703010054_2A2 (HIV-1)
[12] = target: HIV-1 Env of pseudovirus CNE8 (HIV-1)
[13] = target: HIV-1 Env of pseudovirus ZM233M.PB6 (HIV-1)
[14] = target: HIV-1 Env of pseudovirus X1254_c3 (HIV-1)
[15] = target: HIV-1 Env of pseudovirus Ce0393_C3 (HIV-1)
[16] = target: HIV-1 Env of pseudovirus CNE53 (HIV-1)
[17] = target: HIV-1 Env of pseudovirus Du156.12 (HIV-1)
[18] = target: HIV-1 Env of pseudovirus Q842.d12 (HIV-1)
[19] = target: HIV-1 Env of pseudovirus ZM214M.PL15 (HIV-1)
[20] = target: HIV-1 Env of pseudovirus Ce1176_A3 (HIV-1)
[21] = target: HIV-1 Env of pseudovirus ZM249M.PL1 (HIV-1)
[22] = target: HIV-1 Env of pseudovirus CNE20 (HIV-1)
[23] = target: HIV-1 Env of pseudovirus CAP210.2.00.E8 (HIV-1)
[24] = target: HIV-1 Env of pseudovirus R2184.c04 (HIV-1)
[25] = target: HIV-1 Env of pseudovirus X1193_c1 (HIV-1)
[26] = target: HIV-1 Env of pseudovirus Ce2010_F5 (HIV-1)
[27] = target: HIV-1 Env of pseudovirus 1012_11_TC21_3257 (HIV-1)
[28] = target: HIV-1 Env of pseudovirus T278-50 (HIV-1)
[29] = target: HIV-1 Env of pseudovirus Du422.1 (HIV-1)
[30] = target: HIV-1 Env of pseudovirus 1056_10_TA11_1826 (HIV-1)
[31] = target: HIV-1 Env of pseudovirus 928-28 (HIV-1)

## N49P7 (antibody)
[1]
  neutralization IC50: 0.354 µg/mL
  neutralization IC80: 0.884 µg/mL
  neutralization MPI: 100
[2]
  neutralization IC50: 0.261 µg/mL
  neutralization IC80: 0.922 µg/mL
  neutralization MPI: 100
[3]
  neutralization IC50: 6 ng/mL
  neutralization IC80: 0.02 µg/mL
  neutralization MPI: 100
[4]
  neutralization IC50: 0.178 µg/mL
  neutralization IC80: 0.62 µg/mL
  neutralization MPI: 100
[5]
  neutralization IC50: 0.041 µg/mL
  neutralization IC80: 0.131 µg/mL
  neutralization MPI: 100
[6]
  neutralization IC50: 0.034 µg/mL
  neutralization IC80: 0.153 µg/mL
  neutralization MPI: 100
[7]
  neutralization IC50: 0.02 µg/mL
  neutralization IC80: 0.123 µg/mL
  neutralization MPI: 100
[8]
  neutralization IC50: 0.409 µg/mL
  neutralization IC80: 1.21 µg/mL
  neutralization MPI: 100
[9]
  neutralization IC50: 0.036 µg/mL
  neutralization IC80: 0.157 µg/mL
  neutralization MPI: 100
[10]
  neutralization IC50: 0.251 µg/mL
  neutralization IC80: 0.8 µg/mL
  neutralization MPI: 100
[11]
  neutralization IC50: 0.132 µg/mL
  neutralization IC80: 0.466 µg/mL
  neutralization MPI: 100
[12]
  neutralization IC50: 0.037 µg/mL
  neutralization IC80: 0.125 µg/mL
  neutralization MPI: 100
[13]
  neutralization IC50: 0.226 µg/mL
  neutralization IC80: 0.774 µg/mL
  neutralization MPI: 100
[14]
  neutralization IC50: 2.97 µg/mL
  neutralization IC80: 13.6 µg/mL
  neutralization MPI: 100
[15]
  neutralization IC50: 0.195 µg/mL
  neutralization IC80: 0.802 µg/mL
  neutralization MPI: 100
[16]
  neutralization IC50: 0.035 µg/mL
  neutralization IC80: 0.124 µg/mL
  neutralization MPI: 100
[17]
  neutralization IC50: 0.032 µg/mL
  neutralization IC80: 0.086 µg/mL
  neutralization MPI: 100
[18]
  neutralization IC50: 0.021 µg/mL
  neutralization IC80: 0.06 µg/mL
  neutralization MPI: 100
[19]
  neutralization IC50: 0.213 µg/mL
  neutralization IC80: 0.953 µg/mL
  neutralization MPI: 100
[20]
  neutralization IC50: 0.204 µg/mL
  neutralization IC80: 0.589 µg/mL
  neutralization MPI: 100
[21]
  neutralization IC50: 0.039 µg/mL
  neutralization IC80: 0.134 µg/mL
  neutralization MPI: 100
[22]
  neutralization IC50: 0.028 µg/mL
  neutralization IC80: 0.1 µg/mL
  neutralization MPI: 100
[23]
  neutralization IC50: 1.82 µg/mL
  neutralization IC80: 6.49 µg/mL
  neutralization MPI: 100
[24]
  neutralization IC50: 0.011 µg/mL
  neutralization IC80: 0.031 µg/mL
  neutralization MPI: 100
[25]
  neutralization IC50: 0.016 µg/mL
  neutralization IC80: 0.06 µg/mL
  neutralization MPI: 100
[26]
  neutralization IC50: 0.13 µg/mL
  neutralization IC80: 0.547 µg/mL
  neutralization MPI: 100
[27]
  neutralization IC50: 0.046 µg/mL
  neutralization IC80: 0.125 µg/mL
  neutralization MPI: 100
[28]
  neutralization IC50: 22.3 µg/mL
  neutralization IC80: > 50 µg/mL
  neutralization MPI: 75
[29]
  neutralization IC50: 4.5 µg/mL
  neutralization IC80: 19.5 µg/mL
  neutralization MPI: 93
[30]
  neutralization IC50: 0.141 µg/mL
  neutralization IC80: 0.468 µg/mL
  neutralization MPI: 100
[31]
  neutralization IC50: 0.167 µg/mL
  neutralization IC80: 0.579 µg/mL
  neutralization MPI: 100
